Results reported in publication PMC10899793, “Toxin release by conditional remodelling of ParDE1 from Mycobacterium tuberculosis leads to gyrase inhibition” (Nucleic Acids Research, 2023).

T1: ParE1 toxin of Mycobacterium tuberculosis H37Rv (Mycobacterium tuberculosis H37Rv, UniProt P9WHG7 1-98)
T1 construct: also called Rv1959c; not shown: 6His-SUMO, N-terminal, cleaved
T1 sequence: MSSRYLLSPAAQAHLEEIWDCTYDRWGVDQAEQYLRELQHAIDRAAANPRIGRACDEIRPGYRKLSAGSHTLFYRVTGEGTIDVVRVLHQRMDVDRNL

B1: ParE2 toxin of Mycobacterium tuberculosis H37Rv (natural protein)
chain: MTRRLRVHNGVEDDLFEAFSYYADAAPDQIDRLYNLFVDAVTKRIPQAPNAFAPLFKHYRHIYLRPFRYYVAYRTTDEAIDILAVRHGMENPNAVEAEISGRTFE
B2: ParD1 antitoxin of Mycobacterium tuberculosis H37Rv (natural protein)
chain: MGKNTSFVLDEHYSAFIDGEIAAGRYRSASEVIRSALRLLEDRETQLRALREALEAGERSGSSTPFDFDGFLGRKRADASRGR
notes: Antitoxin ParD1, gene parD1 (rv1960c), M. tuberculosis H37Rv; printed mass 9.21 kDa; residues are numbered up to R83; also called primary ParD1; auxiliary ParD1

Key:
[1] = target: Mycobacterium tuberculosis DNA gyrase holoenzyme GyrB2A2 (Mycobacterium tuberculosis) (UniProt P9WG47)
Sequence of Mycobacterium tuberculosis DNA gyrase holoenzyme GyrB2A2 (Mycobacterium tuberculosis) (P9WG47 whole entry, chain 1 of 2): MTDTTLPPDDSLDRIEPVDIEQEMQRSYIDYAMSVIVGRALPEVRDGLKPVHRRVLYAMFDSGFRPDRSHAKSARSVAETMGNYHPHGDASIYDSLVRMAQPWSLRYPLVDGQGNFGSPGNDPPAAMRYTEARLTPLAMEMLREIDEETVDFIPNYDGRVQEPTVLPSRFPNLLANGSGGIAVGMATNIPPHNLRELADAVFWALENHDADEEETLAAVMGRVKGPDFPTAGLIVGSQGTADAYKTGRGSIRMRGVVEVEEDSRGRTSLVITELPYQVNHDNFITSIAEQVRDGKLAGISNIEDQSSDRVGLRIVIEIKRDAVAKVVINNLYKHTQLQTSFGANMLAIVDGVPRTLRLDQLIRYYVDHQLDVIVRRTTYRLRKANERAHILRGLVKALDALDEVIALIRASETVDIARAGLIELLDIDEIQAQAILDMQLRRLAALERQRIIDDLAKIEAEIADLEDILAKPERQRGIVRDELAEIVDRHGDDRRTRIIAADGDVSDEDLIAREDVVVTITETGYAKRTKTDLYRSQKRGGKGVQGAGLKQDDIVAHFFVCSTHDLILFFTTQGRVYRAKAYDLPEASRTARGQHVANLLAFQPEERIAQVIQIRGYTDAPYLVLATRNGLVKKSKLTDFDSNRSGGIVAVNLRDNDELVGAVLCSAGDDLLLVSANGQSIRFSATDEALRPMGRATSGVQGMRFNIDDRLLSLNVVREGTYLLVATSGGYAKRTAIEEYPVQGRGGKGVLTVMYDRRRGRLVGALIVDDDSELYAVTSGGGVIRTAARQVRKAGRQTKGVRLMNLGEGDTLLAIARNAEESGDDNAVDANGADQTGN
Sequence of Mycobacterium tuberculosis DNA gyrase holoenzyme GyrB2A2 (Mycobacterium tuberculosis) (P9WG45 whole entry, chain 2 of 2, further chain): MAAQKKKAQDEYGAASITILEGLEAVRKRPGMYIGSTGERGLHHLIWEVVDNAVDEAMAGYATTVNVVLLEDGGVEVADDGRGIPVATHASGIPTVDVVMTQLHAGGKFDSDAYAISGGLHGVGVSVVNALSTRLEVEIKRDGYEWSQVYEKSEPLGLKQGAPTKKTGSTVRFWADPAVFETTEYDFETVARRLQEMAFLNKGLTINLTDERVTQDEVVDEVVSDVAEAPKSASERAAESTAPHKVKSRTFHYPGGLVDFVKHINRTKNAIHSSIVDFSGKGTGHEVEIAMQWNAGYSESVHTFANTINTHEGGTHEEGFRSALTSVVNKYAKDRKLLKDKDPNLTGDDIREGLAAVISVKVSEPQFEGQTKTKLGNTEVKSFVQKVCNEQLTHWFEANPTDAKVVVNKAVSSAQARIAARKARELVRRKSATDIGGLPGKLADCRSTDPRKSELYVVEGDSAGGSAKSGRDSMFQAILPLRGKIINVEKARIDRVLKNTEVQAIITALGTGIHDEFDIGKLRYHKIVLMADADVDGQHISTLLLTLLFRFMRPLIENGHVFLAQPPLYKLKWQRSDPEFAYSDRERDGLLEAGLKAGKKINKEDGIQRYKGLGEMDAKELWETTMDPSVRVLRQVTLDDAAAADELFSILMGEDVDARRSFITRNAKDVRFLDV

[2] = target: T1, ParE1 toxin of Mycobacterium …; experiment: SEC; details: both partners purified
crystal structure = target: the molecule itself; experiment: crystal structure
[3] = target: T1, ParE1 toxin of Mycobacterium …; experiment: mass photometry; details: both partners purified

| Binder | linearisation of supercoiled pSG483 in the M. tuberculosis gyrase DNA relaxation (cleavage) assay; ParE2 titrated against constant GyrB2A2 (31.25 nM); value at the highest concentration tested (% of substrate pSG483 linearised) [1] | stoichiometry N [2] | stoichiometry N (crystal structure) | stoichiometry N [3] |
| --- | --- | --- | --- | --- |
| B1 | 50 | – | – | – |
| B2 | – | 2 ParD1 per ParE1 (4:2 heterohexamer) | 4 | 1 ParD1 per ParE1 (2:2 heterotetramer) |
